Laboratory results from patent US9585933B2, “Therapeutic use of peptide inhibitors of NADPH oxidase; aerosolization as a delivery mechanism” (University of Pittsburgh—Of the Commonwealth System of …, priority 2011, dated 2017).

Tests used:
[1] = target: T1, Nox2 oxidase (COS-Nox2 lysate) (Homo sapiens, UniProt P14598); assay: EPR with spin probe CMH, O2- production in COS-Nox2 lysates; assay type: biochemical; conditions: 10 μM peptide, vehicle 36330±2658
T1 construct: host or cells: COS 7 cells, stably transfected; cell lysate used
T1 sequence (P14598 1-390): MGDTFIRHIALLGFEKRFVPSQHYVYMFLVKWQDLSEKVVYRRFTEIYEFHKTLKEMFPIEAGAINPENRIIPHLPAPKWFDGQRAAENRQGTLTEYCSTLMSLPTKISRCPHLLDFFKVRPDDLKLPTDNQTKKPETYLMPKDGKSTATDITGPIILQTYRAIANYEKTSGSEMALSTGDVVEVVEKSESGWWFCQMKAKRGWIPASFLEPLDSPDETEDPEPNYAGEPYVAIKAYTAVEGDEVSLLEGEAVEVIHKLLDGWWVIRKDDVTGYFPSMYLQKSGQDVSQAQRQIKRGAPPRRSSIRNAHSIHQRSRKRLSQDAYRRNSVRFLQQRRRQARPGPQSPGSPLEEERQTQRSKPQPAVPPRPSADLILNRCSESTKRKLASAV
Experimental: (§1) To test this hypothesis, the inhibitory activity of Nox2ds was assessed in cell-free assays using reconstituted systems expressing either Nox1, 2 or 4 oxidase. Nox 2 oxidase was recapitulated by stably transfecting COS 7 cells with Nox2, p22phox, p47phox, and p67phox (aka COS-Nox2). Nox1 oxidase was obtained by transfecting COS 7 cells with Nox1, p22phox, NOXO1 and NOXA1 (COS-Nox1), and Nox 4 oxidase was regenerated by transfection of COS 7 cells with Nox4 and p22phox. […] Our new data support selectivity of Nox2ds peptide in differentiating the contribution of Nox2 vs. Nox1 and Nox4 NADPH oxidase and its potential clinical use in ameliorating cardiopulmonary diseases.
The spin probe 1-hydroxy-3-methoxycarbonyl-2,2,5,5-tetramethylpyrrolidine hydrochloride (CMH; Alexis Corp., San Diego, Calif., USA) was used to examine O2^− production in COS-Nox2 cell lysates using a Bruker eScan table-top EPR spectrometer (Bruker Biospin, USA). Superoxide production was measured in oxidase assay buffer (65 mM sodium phosphate buffer, pH 7.0, 1 mM EGTA, 10 μM FAD, 1 mM MgCl2, 2 mM NaN3) supplemented with 50 μM CMH. […] Analyses of the EPR spectra peak heights were used to quantify the amount of O2^− produced by the lysates and were compared with buffer-only control spectra or spectra in the presence of 10 μM Nox2ds, 10 μM Scrmb Nox2ds, or 150 U/ml SOD. […]

[2] = target: T2, Nox2 oxidase (COS-Nox2 lysate: Nox2, p22phox, p47phox, p67phox) (Homo sapiens, UniProt P14598); assay: Cell-free SOD-inhibitable cytochrome c reduction assay, O2- production in COS-Nox2 lysates; assay type: biochemical
T2 construct: host or cells: COS 7 cells, stably transfected; cell lysate used
T2 sequence (P14598 1-390): T1 sequence (P14598 1-390)
Experimental: as §1
COS-Nox2: COS 7 cells transfected with p22^phox, Nox2, p47^phox and p67^phox (M. Dinauer, Indiana University). (Price M O, McPhail L C, Lambeth J D, Han C H, Knaus U G, Dinauer M C. Blood. 2002 Apr. 15; 99(8):2653-61.)
Superoxide (O2^−) production was measured in COS-Nox1 and COS-Nox2 lysates by determining the rate of O2^− dismutase (SOD) inhibitable cytochrome c reduction and by electron paramagnetic resonance (EPR).
COS-Nox2, COS-Nox1/NOXO1/NOXA1, and COS-22 cells were suspended to a concentration of 5×10^7 cells/ml in ice-cold disruption buffer (8 mM potassium, sodium phosphate buffer, pH 7.0, 131 mM NaCl, 340 mM sucrose, 2 mM NaN3, 5 mM MgCl2, 1 mM EGTA, 1 mM EDTA, and protease inhibitor cocktail). The cells were lysed by five freeze/thaw cycles and passed through a 30-gauge needle five times to further lyse the cells. Cell disruption was confirmed by phase-contrast microscopy. The cell lysate was centrifuged at 1000 g for 10 min at 4° C. to remove unbroken cells, nuclei, and debris. Throughout all these procedures, extreme care was taken to maintain the lysate at a temperature close to 0° C. Superoxide production was calculated from the initial linear rate (over 10 min) of SOD-inhibitable cytochrome c reduction quantified at 550 nm using the extinction coefficient of 21.1 mM-1 cm-1 (Biotek Synergy 4 hybrid multimode microplate reader). The oxidase assay buffer consisted of 65 mM sodium phosphate buffer (pH 7.0), 1 mM EGTA, 10 μM FAD, 1 mM MgCl2, 2 mM NaN3, and 0.2 mM cytochrome c. The components of the cell-free system were added in the following order: oxidase assay buffer, cell lysate (5×10^5 cell equivalents/well), and Nox2ds/Scrmb Nox2ds peptides at a final concentration of 0.1, 0.3, 1.0, 3.0, and 10 μM. The plates were placed on an orbital shaker to mix contents for 5 min at 120 movements/min at room temperature. LIDS, an established lipid activator of phagocyte cell-free systems, was added at a concentration of 130 μM, and O2^− production was initiated by the addition of 180 μM NADPH. The concentration of Nox2ds peptide that caused 50% inhibition of O2^− production (IC50) in COS-Nox2 cell lysates was calculated by Prism 5 (GraphPad Software, La Jolla, Calif., USA).
Cytochrome C Assay. FIG. 3A. Rate of O2^− production in COS-Nox2 lysates pretreated with Nox2ds or scrambled control (Scrmb Nox2ds). O2^− production was initiated by the addition of NADPH and measured by the SOD-inhibitable cytochrome c reduction for 10 min.

CM radical intensity (EPR, O2- production) [1]: 34142±6075
inhibition of Nox2-oxidase O2- production (in words) ([2]; cytochrome c assay): did not inhibit
Sequence: CLRVTRQSR (Scrambled Nox2ds) [scrmb Nox2ds, reference compound]
rate of O2- generation, SOD-inhibitable reduction of cytochrome c ([2]; 10 μM peptide, 0 μM control 1.33±0.1): 1.44±0.2 nmol O2^−/min/10^7 lysate-cell equivalents
